Measurements reported in patent US20140134690A1, “MICROBES AND METHODS FOR PRODUCING 1-PROPANOL” (University of Georgia Research Foundation, Inc., priority 2012, published 2014).

Legend:
Assay in all cases: cells, lysate or membranes named
O=C(CO)COP(=O)(O)O [1] = type: biochemical, K. pneumoniae; conditions: other: substrate dihydroxyacetone phosphate 0.15-1.5 mM, crude extract, imidazole-HCl pH 7.0, 30° C.
Text: (§1) 1,2-Propanediol pathway branches from glycolysis and competes for the intermediate dihydroxyacetone phosphate, with the glycolytic pathway. […] We amplified the mgsA genes from the microorganisms: C. acetobutylicum (ATCC#824), B. subtilis 168, C. difficile R20291, E. coli MG1655, T. thermophilus HB27, K. pneumoniae MGH78578, P. fluorescens Pf-5, and R. eutropha H16 respectively. These genes were cloned and expressed in wild type E. coli BW25113 using eight plasmids pRJ1-pRJ8. Each gene was under the control of the IPTG-inducible pLlacO1 promoter. Using dihydroxyacetone-phosphate as the substrate, we successfully detected the functional expression of all mgsA genes in vitro, where the specific activities varied from 0.0052 U/mg to 0.1242 U/mg (Table 1). […] Without the over-expression of mgsA gene, we also detected the native expression of E. coli mgsA, which gave a specific activity of only 0.0008 U/mg, much lower than that of any over-expression.
(§2) Using the primers listed in Table 5, the mgsA genes were PCR amplified from the genomic DNA of C. acetobutylicum (ATCC824), B. subtilis 168, Clostridium difficile R20291, E. coli MG1655, Thermus thermophilus HB27, K. pneumoniae MGH78578, Pseudomonas fluorescens Pf-5, and Ralstonia eutropha H16 respectively. […]
(§3) The assay was carried out using a two-step procedure. […] The samples were diluted 10 times before measuring the absorbance at 550 nm.

O=C(CO)COP(=O)(O)O [2] = type: biochemical, C. difficile; conditions: other: substrate dihydroxyacetone phosphate 0.15-1.5 mM, crude extract, imidazole-HCl pH 7.0, 30° C.
Text: as §1, §2, §3

CC(=O)CO = conditions: other: hydroxyacetone 20-120 mM, 0.25 mM NADH, crude extract, imidazole-HCl pH 7.0, 37° C.
CC(=O)C=O = conditions: other: methylglyoxal 20-120 mM, 0.25 mM NADH, crude extract, imidazole-HCl pH 7.0, 37° C.
O=C(CO)COP(=O)(O)O [3] = type: biochemical, E. coli; conditions: other: substrate dihydroxyacetone phosphate 0.15-1.5 mM, crude extract, imidazole-HCl pH 7.0, 30° C.
Text: as §1, §2, §3

With “Klebsiella pneumoniae MGH78578 methylglyoxal synthase (mgsA), wild type (Klebsiella pneumoniae subsp. pneumoniae MGH 78578)” the Km (O=C(CO)COP(=O)(O)O [1]) was 2820 ± 300 µM.

“Clostridium difficile R20291 methylglyoxal synthase (mgsA), wild type (Clostridioides difficile R20291)” gave a Km (O=C(CO)COP(=O)(O)O [2]) of 1439 ± 60 µM.

“K. pneumoniae MGH78578 diol dehydrogenase (budC), wild type (Klebsiella pneumoniae subsp. pneumoniae MGH 78578)” gave a Km (CC(=O)CO) of 1830 ± 630 µM and a Km (CC(=O)C=O) of 780 ± 30 µM.

Substance “E. coli MG1655 methylglyoxal synthase (mgsA), wild type (Escherichia coli K-12)” has a Km (O=C(CO)COP(=O)(O)O [3]) of 1418 ± 120 µM.
